One assay concerns the target T1, LZTR1 R810W-FLAG (human, UniProt Q8N653 1-840).
T1 construct: Stably expressed in U87 cells by lentivirus; also called LZTR1-FLAG-R810W; LZTR1 RW; not shown: FLAG tag
T1 sequence (looked up): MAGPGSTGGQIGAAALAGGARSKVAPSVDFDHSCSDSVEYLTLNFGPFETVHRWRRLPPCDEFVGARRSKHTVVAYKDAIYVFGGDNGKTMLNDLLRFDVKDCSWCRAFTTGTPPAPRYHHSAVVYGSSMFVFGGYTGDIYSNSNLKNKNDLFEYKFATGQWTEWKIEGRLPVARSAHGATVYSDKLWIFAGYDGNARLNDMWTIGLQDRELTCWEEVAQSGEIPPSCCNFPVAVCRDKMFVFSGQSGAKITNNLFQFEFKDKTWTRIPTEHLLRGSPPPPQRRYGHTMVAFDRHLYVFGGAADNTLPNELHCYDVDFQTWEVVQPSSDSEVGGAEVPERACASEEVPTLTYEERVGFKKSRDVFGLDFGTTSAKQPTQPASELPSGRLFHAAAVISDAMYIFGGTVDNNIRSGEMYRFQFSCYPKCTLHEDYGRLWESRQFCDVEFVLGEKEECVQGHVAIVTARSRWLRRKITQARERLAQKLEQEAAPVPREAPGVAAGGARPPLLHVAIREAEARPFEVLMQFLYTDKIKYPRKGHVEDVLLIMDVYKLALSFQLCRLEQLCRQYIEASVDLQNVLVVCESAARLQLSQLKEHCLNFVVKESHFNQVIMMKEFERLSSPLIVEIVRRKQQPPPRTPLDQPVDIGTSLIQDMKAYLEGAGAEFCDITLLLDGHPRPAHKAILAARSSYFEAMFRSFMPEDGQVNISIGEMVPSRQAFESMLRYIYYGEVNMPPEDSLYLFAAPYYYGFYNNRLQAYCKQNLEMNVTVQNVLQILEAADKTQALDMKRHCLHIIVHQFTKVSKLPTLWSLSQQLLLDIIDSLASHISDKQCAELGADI
Nature of the assay: IP/MS, LZTR1 R810W-FLAG, U87. Here is the method: (§1) Lysates were immunoprecipitated with FLAG affinity matrix and eluted with FLAG peptide. […] Protein gel slices were excised and in-gel digestion performed as previously described (83), with minor modifications. Gel slices were washed with 1:1 A cetonitrile and 100 mM ammonium bicarbonate for 30 min then dehydrated with 100% acetonitrile for 10 min until shrunk. The excess acetonitrile was then removed and the slices dried in speed-vacuum at room temperature for 10 min. Gel slices were reduced with 5 mM DTT for 30 min at 56° C. in an air thermostat, cooled down to room temperature, and alkylated with 11 mM IAA for 30 min with no light. Gel slices were then washed with 100 mM of ammonium bicarbonate and 100% acetonitrile for 10 min each. Excess acetonitrile was removed and dried in a speed-vacuum for 10 min at room temperature and the gel slices were re-hydrated in a solution of 25 ng/μl trypsin in 50 mM ammonium bicarbonate for 30 min on ice and digested overnight at 37° C. in an air thermostat. Digested peptides were collected and further extracted from gel slices in extraction buffer (1:2 ratio by volume of 5% formic acid:acetonitrile) at high speed, shaking in an air thermostat. The supernatants from both extractions were combined and dried in a speed-vacuum. Peptides were dissolved in 3% acetonitrile/0.1% formic acid. Desalted peptides were injected in an EASY-Spray™ PepMap™ RSLC C18 50 cm×[…] column (Thermo Scientific) connected to an Orbitrap Fusion™ Tribrid™ (Thermo Scientific) as described in “Global ubiquitylation enrichment” section. The following modifications were used for protein identification and quantification: oxidation of methionine (M), acetylation of the protein N-terminus, and deamination for asparagine or glutamine (NQ). Results obtained from MaxQuant were assembled in Scaffold for data visualization.

The next assay has as its target T2, LZTR1-FLAG (human, UniProt Q8N653 1-840).
T2 construct: Expressed in HEK 293T, HeLa or U87 cells; used as cell lysate; also called LZTR1 wild type-FLAG; LZTR1 WT; not shown: FLAG tag at the C-terminus
T2 sequence (looked up): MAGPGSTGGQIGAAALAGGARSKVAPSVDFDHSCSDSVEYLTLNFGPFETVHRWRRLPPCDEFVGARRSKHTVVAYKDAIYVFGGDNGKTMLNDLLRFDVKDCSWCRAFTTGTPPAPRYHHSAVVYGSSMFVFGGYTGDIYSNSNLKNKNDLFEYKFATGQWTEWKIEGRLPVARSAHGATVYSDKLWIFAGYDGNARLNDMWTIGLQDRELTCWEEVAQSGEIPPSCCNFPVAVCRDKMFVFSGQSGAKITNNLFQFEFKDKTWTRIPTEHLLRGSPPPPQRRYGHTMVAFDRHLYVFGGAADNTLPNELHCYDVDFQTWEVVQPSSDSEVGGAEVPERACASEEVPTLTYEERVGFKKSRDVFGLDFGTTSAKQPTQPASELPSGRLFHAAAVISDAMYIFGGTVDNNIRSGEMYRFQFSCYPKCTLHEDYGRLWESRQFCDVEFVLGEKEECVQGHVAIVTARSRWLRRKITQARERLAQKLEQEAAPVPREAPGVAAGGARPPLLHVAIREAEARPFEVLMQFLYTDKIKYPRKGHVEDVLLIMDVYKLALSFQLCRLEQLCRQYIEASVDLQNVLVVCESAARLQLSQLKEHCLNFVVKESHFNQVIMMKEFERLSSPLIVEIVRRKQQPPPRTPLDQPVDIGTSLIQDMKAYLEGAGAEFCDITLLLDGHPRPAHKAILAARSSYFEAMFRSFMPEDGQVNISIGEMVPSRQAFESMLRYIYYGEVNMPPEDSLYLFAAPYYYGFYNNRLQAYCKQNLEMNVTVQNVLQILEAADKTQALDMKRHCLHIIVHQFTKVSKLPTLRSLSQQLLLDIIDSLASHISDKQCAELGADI
Kind of assay: IP/MS, LZTR1 wild type-FLAG, U87. Here is the method:
as §1

B1: BRAT1 (other, human, UniProt Q6PJG6 1-821, looked up)
chain: MDPECAQLLPALCAVLVDPRQPVADDTCLEKLLDWFKTVTEGESSVVLLQEHPCLVELLSHVLKVQDLSSGVLSFSLRLAGTFAAQENCFQYLQQGELLPGLFGEPGPLGRATWAVPTVRSGWIQGLRSLAQHPSALRFLADHGAVDTIFSLQGDSSLFVASAASQLLVHVLALSMRGGAEGQPCLPGGDWPACAQKIMDHVEESLCSAATPKVTQALNVLTTTFGRCQSPWTEALWVRLSPRVACLLERDPIPAAHSFVDLLLCVARSPVFSSSDGSLWETVARALSCLGPTHMGPLALGILKLEHCPQALRTQAFQVLLQPLACVLKATVQAPGPPGLLDGTADDATTVDTLLASKSSCAGLLCRTLAHLEELQPLPQRPSPWPQASLLGATVTVLRLCDGSAAPASSVGGHLCGTLAGCVRVQRAALDFLGTLSQGTGPQELVTQALAVLLECLESPGSSPTVLKKAFQATLRWLLSSPKTPGCSDLGPLIPQFLRELFPVLQKRLCHPCWEVRDSALEFLTQLSRHWGGQADFRCALLASEVPQLALQLLQDPESYVRASAVTAMGQLSSQGLHAPTSPEHAEARQSLFLELLHILSVDSEGFPRRAVMQVFTEWLRDGHADAAQDTEQFVATVLQAASRDLDWEVRAQGLELALVFLGQTLGPPRTHCPYAVALPEVAPAQPLTEALRALCHVGLFDFAFCALFDCDRPVAQKSCDLLLFLRDKIASYSSLREARGSPNTASAEATLPRWRAGEQAQPPGDQEPEAVLAMLRSLDLEGLRSTLAESSDHVEKSPQSLLQDMLATGGFLQGDEADCY
As for B1, the binding result with LZTR1 R810W-FLAG and with LZTR1-FLAG was “binds” throughout.

B2: CCNB2 (other, human, UniProt O95067 1-398, looked up)
chain: MALLRRPTVSSDLENIDTGVNSKVKSHVTIRRTVLEEIGNRVTTRAAQVAKKAQNTKVPVQPTKTTNVNKQLKPTASVKPVQMEKLAPKGPSPTPEDVSMKEENLCQAFSDALLCKIEDIDNEDWENPQLCSDYVKDIYQYLRQLEVLQSINPHFLDGRDINGRMRAILVDWLVQVHSKFRLLQETLYMCVGIMDRFLQVQPVSRKKLQLVGITALLLASKYEEMFSPNIEDFVYITDNAYTSSQIREMETLILKELKFELGRPLPLHFLRRASKAGEVDVEQHTLAKYLMELTLIDYDMVHYHPSKVAAAASCLSQKVLGQGKWNLKQQYYTGYTENEVLEVMQHMAKNVVKVNENLTKFIAIKNKYASSKLLKISMIPQLNSKAVKDLASPLIGRS
Take B2: the binding result with LZTR1 R810W-FLAG and with LZTR1-FLAG was “binds” in each case.

B3: CREB3L2 (other, human, UniProt Q70SY1 1-520, looked up)
chain: MEVLESGEQGVLQWDRKLSELSEPGDGEALMYHTHFSELLDEFSQNVLGQLLNDPFLSEKSVSMEVEPSPTSPAPLIQAEHSYSLCEEPRAQSPFTHITTSDSFNDDEVESEKWYLSTDFPSTSIKTEPVTDEPPPGLVPSVTLTITAISTPLEKEEPPLEMNTGVDSSCQTIIPKIKLEPHEVDQFLNFSPKEAPVDHLHLPPTPPSSHGSDSEGSLSPNPRLHPFSLPQTHSPSRAAPRAPSALSSSPLLTAPHKLQGSGPLVLTEEEKRTLIAEGYPIPTKLPLSKSEEKALKKIRRKIKNKISAQESRRKKKEYMDSLEKKVESCSTENLELRKKVEVLENTNRTLLQQLQKLQTLVMGKVSRTCKLAGTQTGTCLMVVVLCFAVAFGSFFQGYGPYPSATKMALPSQHSLQEPYTASVVRSRNLLIYEEHSPPEESSSPGSAGELGGWDRGSSLLRVSGLESRPDVDLPHFIISNETSLEKSVLLELQQHLVSAKLEGNETLKVVELDRRVNTTF
For B3, the binding result with LZTR1 R810W-FLAG and with LZTR1-FLAG was “binds” throughout.

B4: CELF1 (other, human, UniProt Q92879 1-486, looked up)
chain: MNGTLDHPDQPDLDAIKMFVGQVPRTWSEKDLRELFEQYGAVYEINVLRDRSQNPPQSKGCCFVTFYTRKAALEAQNALHNMKVLPGMHHPIQMKPADSEKNNAVEDRKLFIGMISKKCTENDIRVMFSSFGQIEECRILRGPDGLSRGCAFVTFTTRAMAQTAIKAMHQAQTMEGCSSPMVVKFADTQKDKEQKRMAQQLQQQMQQISAASVWGNLAGLNTLGPQYLALYLQLLQQTASSGNLNTLSSLHPMGGLNAMQLQNLAALAAAASAAQNTPSGTNALTTSSSPLSVLTSSGSSPSSSSSNSVNPIASLGALQTLAGATAGLNVGSLAGMAALNGGLGSSGLSNGTGSTMEALTQAYSGIQQYAAAALPTLYNQNLLTQQSIGAAGSQKEGPEGANLFIYHLPQEFGDQDLLQMFMPFGNVVSAKVFIDKQTNLSKCFGFVSYDNPVSAQAAIQSMNGFQIGMKRLKVQLKRSKNDSKPY
As for B4, the binding result with LZTR1 R810W-FLAG and in the assay with LZTR1-FLAG was “binds” in each case.

B5: CTH (other, human, UniProt P32929 1-405, looked up)
chain: MQEKDASSQGFLPHFQHFATQAIHVGQDPEQWTSRAVVPPISLSTTFKQGAPGQHSGFEYSRSGNPTRNCLEKAVAALDGAKYCLAFASGLAATVTITHLLKAGDQIICMDDVYGGTNRYFRQVASEFGLKISFVDCSKIKLLEAAITPETKLVWIETPTNPTQKVIDIEGCAHIVHKHGDIILVVDNTFMSPYFQRPLALGADISMYSATKYMNGHSDVVMGLVSVNCESLHNRLRFLQNSLGAVPSPIDCYLCNRGLKTLHVRMEKHFKNGMAVAQFLESNPWVEKVIYPGLPSHPQHELVKRQCTGCTGMVTFYIKGTLQHAEIFLKNLKLFTLAESLGGFESLAELPAIMTHASVLKNDRDVLGISDTLIRLSVGLEDEEDLLEDLDQALKAAHPPSGSHS
As for B5, the binding result with LZTR1 R810W-FLAG and with LZTR1-FLAG was “binds” in each case.

B6: CARS (other, human, UniProt P49589 2-748, looked up)
chain: ADSSGQQGKGRRVQPQWSPPAGTQPCRLHLYNSLTRNKEVFIPQDGKKVTWYCCGPTVYDASHMGHARSYISFDILRRVLKDYFKFDVFYCMNITDIDDKIIKRARQNHLFEQYREKRPEAAQLLEDVQAALKPFSVKLNETTDPDKKQMLERIQHAVQLATEPLEKAVQSRLTGEEVNSCVEVLLEEAKDLLSDWLDSTLGCDVTDNSIFSKLPKFWEGDFHRDMEALNVLPPDVLTRVSEYVPEIVNFVQKIVDNGYGYVSNGSVYFDTAKFASSEKHSYGKLVPEAVGDQKALQEGEGDLSISADRLSEKRSPNDFALWKASKPGEPSWPCPWGKGRPGWHIECSAMAGTLLGASMDIHGGGFDLRFPHHDNELAQSEAYFENDCWVRYFLHTGHLTIAGCKMSKSLKNFITIKDALKKHSARQLRLAFLMHSWKDTLDYSSNTMESALQYEKFLNEFFLNVKDILRAPVDITGQFEKWGEEEAELNKNFYDKKTAIHKALCDNVDTRTVMEEMRALVSQCNLYMAARKAVRKRPNQALLENIALYLTHMLKIFGAVEEDSSLGFPVGGPGTSLSLEATVMPYLQVLSEFREGVRKIAREQKVPEILQLSDALRDNILPELGVRFEDHEGLPTVVKLVDRNTLLKEREEKRRVEEEKRKKKEEAARRKQEQEAAKLAKMKIPPSEMFLSETDKYSKFDENGLPTHDMEGKELSKGQAKKLKKLFEAQEKLYKEYLQMAQNGSFQ
Turning to B6, the binding result with LZTR1 R810W-FLAG and with LZTR1-FLAG was “binds” throughout.
